# Positions of bridges follow the written chain, without caps; N, C: chain ends. No end group written: not given here. COCH2 = acetyl group that carries the bridge
# Biological target: T1, Recombinant Human FGFR1 alpha (IIIc) Fc Chimera Protein (Homo sapiens, UniProt P11362)
# T1 construct: purchased R&D systems 658-FR-050
# Experiment: ELISA binding affinity of enzymatically synthesized peptide to FGFR
# Settings: ELISA luminescence signal at 10 nmol/L peptide, SEQ ID NO: 239 standardized to 1; enzyme synthesis product
# Description: The binding affinity of the peptide to FGFR was evaluated using an ELISA method.
# The peptide used for the evaluation was enzymatically synthesized by the following method.
# First, a fusion peptide (SEQ ID NO: 25) in which a translation enhancing sequence (SEQ ID NO: 22), a peptide, a Myc tag (SEQ ID NO: 23), and a HiBiT tag (SEQ ID NO: 24) were linked in this order was designed. Next, a template DNA sequence (SEQ ID NO: 26) was designed in which a T7 promoter sequence, a Shine-Dalgarno sequence, a sequence necessary for transcription and translation initiation, such as a start codon (ATG), was provided on the 5′ terminal side of the DNA sequence encoding the fused peptide, and a stop codon group was provided on the 3′ terminal side thereof. In a case where the triplet TAG codon is included in the template DNA sequence, the above-described codon is assigned to the codon of chloroacetylated lysine, and thus, the peptide encoded by the above-described DNA sequence is a cyclic peptide in which a thiol group of cysteine and a chloroacetyl group of chloroacetylated lysine spontaneously form a thioether bond.
# The cell-free enzymatic synthesis of the polypeptide was performed in a translation solution containing a template DNA, PUREfrex 2.0 (GeneFrontier, PF201-0.25-5), and Aminoacyl tRNA (1). 1.75 μL ([…]) of the template DNA prepared to 50 ng/μL, 2.5 μL of PUREfrex 2.0 Solution I, 0.25 μL of Solution II, 0.5 μL of Solution III, and a dried product of Aminoacyl tRNA (1) (final concentration: 0.5 ng/μL) were mixed and mixture was subjected to a reaction at 37° C. for 1 hour.
# The concentration of the enzymatically synthesized peptide was measured using the peptide diluted with Can Get Signal Immunoreaction Enhancer Solution I (TOYOBO, NKB-101), Nano-Glo HiBiT Lytic Detection System (Promega, N3040), and a chemical synthetic peptide for a calibration curve having a known concentration (SEQ ID NO: 33) according to the standard protocol of the Nano-Glo HiBiT Lytic Detection System.
# The binding affinity of the enzymatically synthesized peptide to FGFR was measured by evaluating the amount of the peptide bound to FGFR by ELISA.
# First, 5 ng of Recombinant Human FGFR1 alpha (IIIc) Fc Chimera Protein (R&D systems, 658-FR-050) was immobilized in each well of a 96-well plate, and blocked with Pierce Protein-Free (PBS) Blocking Buffer (Thermo, 37572), and a peptide diluted with Can Get Signal Immunoreaction Enhancer Solution I (TOYOBO, NKB-101) was then added and reacted at room temperature for 3 hours. After washing with 0.05% Tween 20-containing phosphate buffered saline (PBS), an anti-Myc antibody (Cell Signaling, 14038S) diluted with Can Get Signal Immunoreaction Enhancer Solution II (TOYOBO, NKB-101) was added and reacted at room temperature for 2 hours. After washing with 0.05% Tween 20-containing PBS, SuperSignal ELISA Femto Substrate (Thermo, 37075) was added, and the luminescence amount was measured. The dose-response relationship was calculated from using the difference between the luminescence amount in the well in which FGFR was immobilized and the luminescence amount in the well in which FGFR was not immobilized, and the concentration of the peptide at the time of reaction, and the binding affinity to FGFR was evaluated according to the following evaluation criteria. The evaluation result preferably satisfies the evaluation criteria A, B, or C.
# In a case where a value of a luminescence signal emitted by the cyclic peptide set forth in SEQ ID NO: 239 at a reaction concentration of 10 nmol/L is standardized to 1, evaluation criteria of the luminescence signal value emitted by the peptide at a reaction concentration of 10 nmol/L is as follows. • A: 0.7 or more • B: 0.5 or more and less than 0.7 • C: 0.1 or more and less than 0.5 • D: less than 0.1.
# T1 sequence (P11362 with tags, fused parts or gaps limits assumed): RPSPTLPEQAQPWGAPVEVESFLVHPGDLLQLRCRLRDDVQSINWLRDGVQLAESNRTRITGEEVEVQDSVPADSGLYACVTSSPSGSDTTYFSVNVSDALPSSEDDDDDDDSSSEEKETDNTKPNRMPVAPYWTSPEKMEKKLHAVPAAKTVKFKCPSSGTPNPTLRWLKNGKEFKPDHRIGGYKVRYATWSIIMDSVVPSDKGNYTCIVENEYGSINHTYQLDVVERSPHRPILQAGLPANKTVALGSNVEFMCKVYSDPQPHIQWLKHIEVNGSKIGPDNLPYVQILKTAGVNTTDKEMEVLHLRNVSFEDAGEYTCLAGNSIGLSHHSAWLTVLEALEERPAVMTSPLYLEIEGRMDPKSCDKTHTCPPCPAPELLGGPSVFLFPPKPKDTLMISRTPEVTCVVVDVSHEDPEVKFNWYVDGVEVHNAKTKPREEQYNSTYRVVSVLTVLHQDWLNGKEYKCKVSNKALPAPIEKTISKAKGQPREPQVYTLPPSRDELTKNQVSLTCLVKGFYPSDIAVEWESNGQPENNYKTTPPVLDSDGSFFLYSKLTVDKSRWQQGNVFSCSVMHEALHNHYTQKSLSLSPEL
row,Substance,Evaluation result of binding affinity to FGFR
1,95 (ICVYTFDWHAHSLHAALTK(COCH2)I; thioether 2-19 (inferred)) [compound 95],C (0.1 or more and less than 0.5)
2,96 (ICVYTFDNHAHSLHAALTK(COCH2)I; thioether 2-19 (inferred)) [compound 96],C (0.1 or more and less than 0.5)
3,97 (ICVYTFDQHAHSLHAALTK(COCH2)I; thioether 2-19 (inferred)) [compound 97],A (0.7 or more)
4,98 (ICVYTFDSHAHSLHAALTK(COCH2)I; thioether 2-19 (inferred)) [compound 98],A (0.7 or more)
5,99 (ICVYTFDTHAHSLHAALTK(COCH2)I; thioether 2-19 (inferred)) [compound 99],C (0.1 or more and less than 0.5)
6,100 (ICVYTFDEHAHSLHAALTKI; Description of Artificial Sequence: Cyclic peptide) [compound 100],A (0.7 or more)
7,101 (ICVYTFDRHAHSLHAALTKI; Description of Artificial Sequence: Cyclic peptide) [compound 101],A (0.7 or more)
8,102 (ICVYTFDHHAHSLHAALTKI; Description of Artificial Sequence: Cyclic peptide) [compound 102],B (0.5 or more and less than 0.7)
9,103 (ICVYTFDAAAHSLHAALTKI; Description of Artificial Sequence: Cyclic peptide) [compound 103],A (0.7 or more)
10,104 (ICVYTFDAGAHSLHAALTKI; Description of Artificial Sequence: Cyclic peptide) [compound 104],A (0.7 or more)
11,105 (ICVYTFDALAHSLHAALTKI; Description of Artificial Sequence: Cyclic peptide) [compound 105],A (0.7 or more)
12,106 (ICVYTFDAIAHSLHAALTKI; Description of Artificial Sequence: Cyclic peptide) [compound 106],C (0.1 or more and less than 0.5)
13,107 (ICVYTFDAVAHSLHAALTKI; Description of Artificial Sequence: Cyclic peptide) [compound 107],C (0.1 or more and less than 0.5)
14,108 (ICVYTFDAFAHSLHAALTKI; Description of Artificial Sequence: Cyclic peptide) [compound 108],B (0.5 or more and less than 0.7)
15,109 (ICVYTFDAYAHSLHAALTKI; Description of Artificial Sequence: Cyclic peptide) [compound 109],B (0.5 or more and less than 0.7)
16,110 (ICVYTFDAWAHSLHAALTKI; Description of Artificial Sequence: Cyclic peptide) [compound 110],C (0.1 or more and less than 0.5)
17,111 (ICVYTFDANAHSLHAALTKI; Description of Artificial Sequence: Cyclic peptide) [compound 111],A (0.7 or more)
18,112 (ICVYTFDAQAHSLHAALTKI; Description of Artificial Sequence: Cyclic peptide) [compound 112],A (0.7 or more)

row,Substance,Evaluation result of binding affinity to FGFR
1,113 (ICVYTFDASAHSLHAALTKI; Description of Artificial Sequence: Cyclic peptide) [compound 113],A (0.7 or more)
2,114 (ICVYTFDATAHSLHAALTKI; Description of Artificial Sequence: Cyclic peptide) [compound 114],A (0.7 or more)
3,115 (ICVYTFDADAHSLHAALTKI; Description of Artificial Sequence: Cyclic peptide) [compound 115],A (0.7 or more)
4,116 (ICVYTFDAEAHSLHAALTKI; Description of Artificial Sequence: Cyclic peptide) [compound 116],A (0.7 or more)
5,117 (ICVYTFDARAHSLHAALTKI; Description of Artificial Sequence: Cyclic peptide) [compound 117],A (0.7 or more)
6,118 (ICVYTFDAHGHSLHAALTKI; Description of Artificial Sequence: Cyclic peptide) [compound 118],C (0.1 or more and less than 0.5)
7,119 (ICVYTFDAHIHSLHAALTKI; Description of Artificial Sequence: Cyclic peptide) [compound 119],C (0.1 or more and less than 0.5)
8,120 (ICVYTFDAHVHSLHAALTKI; Description of Artificial Sequence: Cyclic peptide) [compound 120],C (0.1 or more and less than 0.5)
9,121 (ICVYTFDAHFHSLHAALTKI; Description of Artificial Sequence: Cyclic peptide) [compound 121],C (0.1 or more and less than 0.5)
10,122 (ICVYTFDAHYHSLHAALTKI; Description of Artificial Sequence: Cyclic peptide) [compound 122],C (0.1 or more and less than 0.5)
11,123 (ICVYTFDAHWHSLHAALTKI; Description of Artificial Sequence: Cyclic peptide) [compound 123],C (0.1 or more and less than 0.5)
12,124 (ICVYTFDAHQHSLHAALTKI; Description of Artificial Sequence: Cyclic peptide) [compound 124],B (0.5 or more and less than 0.7)
13,125 (ICVYTFDAHSHSLHAALTKI; Description of Artificial Sequence: Cyclic peptide) [compound 125],C (0.1 or more and less than 0.5)
14,126 (ICVYTFDAHTHSLHAALTKI; Description of Artificial Sequence: Cyclic peptide) [compound 126],C (0.1 or more and less than 0.5)
15,127 (ICVYTFDAHDHSLHAALTKI; Description of Artificial Sequence: Cyclic peptide) [compound 127],C (0.1 or more and less than 0.5)
16,128 (ICVYTFDAHEHSLHAALTKI; Description of Artificial Sequence: Cyclic peptide) [compound 128],C (0.1 or more and less than 0.5)
17,129 (ICVYTFDAHRHSLHAALTKI; Description of Artificial Sequence: Cyclic peptide) [compound 129],C (0.1 or more and less than 0.5)

# Source: patent publication US20260008817A1, “CYCLIC PEPTIDE OR SALT THEREOF, AND USES THEREOF” (FUJIFILM Corporation, priority 2023, published 2026)
